Laboratory results as given in paper PMC10691131, “Self S-RNase reduces the expression of two pollen-specific COBRA genes to inhibit pollen tube growth in pear”.

Molecular target: T1, PbC2H2.K16.2 (pear, UniProt UPI0005117FCC 5-185)
T1 sequence: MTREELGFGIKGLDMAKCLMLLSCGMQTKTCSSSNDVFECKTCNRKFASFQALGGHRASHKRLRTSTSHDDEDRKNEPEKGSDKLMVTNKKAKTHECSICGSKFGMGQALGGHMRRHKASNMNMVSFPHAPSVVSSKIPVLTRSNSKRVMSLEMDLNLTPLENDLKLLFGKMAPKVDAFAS
Test: EMSA; 10x and 100x cold probe weakens signal; Buffer, salt, pH and temperature not stated; EMSA per Guo et al. 2021, MST per Singh et al. 2014 (Monolith NT.115)
Details: protein: recombinant; tags: His; label: 5' biotin (EMSA)

B1: PbCOB.A.2 promoter probe (PbC2H2.K16.2) (dsDNA)
DNA 1: TAAAAACATGATTGGTCCAATGCAAGTTAT
DNA 2: ATAACTTGCATTGGACCAATCATGTTTTTA
binding result: binds

B2: PbCOB.A.1 promoter probe (dsDNA)
DNA 1: TTCGAGGTTTTTGGTCCAGAAAGAAGAAGA
DNA 2: TCTTCTTCTTTCTGGACCAAAAACCTCGAA
binding result: binds
